# Measured values taken from the supplement of paper PMC10724198.
# ± gives the standard deviation of the averaged measurements.
# Tested on: Saccharomyces cerevisiae
# Assay: protein stability index of tFT-peptide fusion (C-terminal peptide) (PSI (0-1 scale)); higher = more stable (slower turnover)
# Conditions: genetic background: das1 deletion; temperature: 30 C
# Protocol: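 MPS profiling in S. cerevisiae of the yeast C-terminome library: the last 12 aa of each annotated ORF are fused to the C-terminus of a sfGFP-mCherry timer, after a GGGS linker. Cells are FACS-sorted into 8 mCherry/sfGFP bins and deep-sequenced. PSI runs from 0 (unstable) to 1 (stable); wild type and das1Δ backgrounds, two technical replicates each.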
row,Sequence,protein stability index
1,DGITLDMPLFEF [AOS1 C-terminal 12 aa],0.7107 ± 0.0043
2,DHMQLTGRILVL [YJL132W C-terminal 12 aa],0.58733 ± 0.00058
3,DHQVDFLGNKIL [YLR463C C-terminal 12 aa],0.712 ± 0.0082
4,DHSNAFESILIF [TRS130 C-terminal 12 aa],0.6353 ± 0.0054
5,DIPSEEGTKVIL [BSC3 C-terminal 12 aa],0.701 ± 0.016
6,DKELDSTFDTFG [MIF2 C-terminal 12 aa],0.701 ± 0.012
7,DKEWTNYATHIG [AYT1 C-terminal 12 aa],0.696 ± 0.019
8,DKIQDARNSSTK [MHP1 C-terminal 12 aa],0.677 ± 0.028
9,DKYLCMLKTCVF [NUT1 C-terminal 12 aa],0.515 ± 0.019
10,DLVRTDQLCPNY [CQD1 C-terminal 12 aa],0.681 ± 0.021
11,DNDNDDDIDSDN [RUP1 C-terminal 12 aa],0.704 ± 0.051
12,DNFRERYFNNFN [TRM11 C-terminal 12 aa],0.71368 ± 0.00039
13,DNGELDLSGFNI [MED2 C-terminal 12 aa],0.696 ± 0.013
14,DNQSLPNSEKIK [CST6 C-terminal 12 aa],0.711 ± 0.017
15,DQPFYKKMFGKK [HXT3 C-terminal 12 aa],0.6926 ± 0.0016
16,DRIESSSGRISW [SPC110 C-terminal 12 aa],0.702 ± 0.022
17,DSEIEMLKGRLQ [EPO1 C-terminal 12 aa],0.6666 ± 0.002
18,DSELGCCCCFFN [EDS1 C-terminal 12 aa],0.701 ± 0.03
19,DSIADEFSSLYF [SPR6 C-terminal 12 aa],0.7689 ± 0.0042
20,DSPDFKKHLEKK [RSM10 C-terminal 12 aa],0.684 ± 0.025
21,DSTVLDFVESIS [HER2 C-terminal 12 aa],0.7089 ± 0.005

row,Sequence,protein stability index
1,DTGNTIKCEFIL [ERG29 C-terminal 12 aa],0.7022 ± 0.0068
2,DTTFPQDQHDID [PUT7 C-terminal 12 aa],0.696 ± 0.012
3,DVETRVQNLEQT [DPB4 C-terminal 12 aa],0.713 ± 0.032
4,DVIDTIMSKQEP [UGA4 C-terminal 12 aa],0.698 ± 0.02
5,DWAPGKQLEMNH [JAC1 C-terminal 12 aa],0.699 ± 0.018
6,EAADEADEADEE [RPS9A C-terminal 12 aa],0.6914 ± 0.0068
7,EAEQTKAPKIQI [TMC1 C-terminal 12 aa],0.6728 ± 0.0043
8,EAHREQIGGATY [SMT3 C-terminal 12 aa],0.691 ± 0.016
9,EAVDRIVSHDEL [SEC20 C-terminal 12 aa],0.702 ± 0.014
10,ECRKKNYFKCKH [ATG39 C-terminal 12 aa],0.692 ± 0.0091
11,EDAFLKDVFQQS [KGD1 C-terminal 12 aa],0.7394 ± 0.0043
12,EDESLNSSRSTT [RCF3 C-terminal 12 aa],0.6802 ± 0.0033
13,EDGVGDPREEDE [RAD51 C-terminal 12 aa],0.693 ± 0.023
14,EDITVQVPDTPT [EST1 C-terminal 12 aa],0.708 ± 0.017
15,EDPDFLQHALQS [GRX3 C-terminal 12 aa],0.707 ± 0.013
16,EDSSDSSDSDSD [BDF2 C-terminal 12 aa],0.669 ± 0.015
17,EEDIFYRNQVVF [YKR075C C-terminal 12 aa],0.738 ± 0.0081
18,EEDPEYFQHALQ [GRX4 C-terminal 12 aa],0.71049 ± 4e-05
19,EEEKRHGIYLKC [GUP1 C-terminal 12 aa],0.694 ± 0.029
20,EEFNKQLKDIEA [YOR289W C-terminal 12 aa],0.69 ± 0.026
